To fix the notation:
B1: PBX1_(1-430), wild-type recombinant [human] / PREP1_(1-436), wild-type recombinant (TR-FIA) [not stated] (parent complex)
chain 1: MDEQPRLMHSHAGVGMAGHPGLSQHLQDGAGGTEGEGGRKQDIGDILQQIMTITDQSLDEAQARKHALNCHRMKPALFNVLCEIKEKTVLSIRGAQEEEPTDPQLMRLDNMLLAEGVAGPEKGGGSAAAAAAAAASGGAGSDNSVEHSDYRAKLSQIRQIYHTELEKYEQACNEFTTHVMNLLREQSRTRPISPKEIERMVSIIHRKFSSIQMQLKQSTCEAVMILRSRFLDARRKRRNFNKQATEILNEYFYSHLSNPYPSEEAKEELAKKCGITVSQVSNWFGNKRIRYKKNIGKFQEEANIYAAKTAVTATNVSAHGSQANSPSTPNSAGSSSSFNMSNSGDLFMSVQSLNGDSYQGAQVGANVQSQVDTLRHVISQTGGYSDGLAASQMYSPQGISANGGWQDATTPSSVTSPTEGPGSVHSDTSN
chain 2: MMATQTLSIDSYQDGQQMQVVTELKTEQDPNCSEPDAEGVSPPPVESQTPMDVDKQAIYRHPLFPLLALLFEKCEQSTQGSEGTTSASFDVDIENFVRKQEKEGKPFFCEDPETDNLMVKAIQVLRIHLLELEKVNELCKDFCSRYIACLKTKMNSETLLSGEPGSPYSPVQSQQIQSAITGTISPQGIVVPASALQQGNVAMATVAGGTVYQPVTVVTPQGQVVTQTLSPGTIRIQNSQLQLQLNQDLSILHQDDGSSKNKRGVLPKHATNVMRSWLFQHIGHPYPTEDEKKQIAAQTNLTLLQVNNWFINARRRILQPMLDSSCSETPKTKKKTAQNRPVQRFWPDSIASGVAQPPPSELTMSEGAVVTITTPVNMNVDSLQSLSSDGATLAVQQVMMAGQSEDESVDSTEEDAGALAPAHISGLVLENSDSLQ
B2: N-terminal GST-fused wild-type PREP1 [not stated] / PBX1_(1-430), wild-type recombinant [human] (parent complex)
chain 1: B1 chain 2
chain 2: B1 chain 1

The first assay covers variants of B1. The assay can be described thus: TR-FIA; parent: 1; read off a plot.
In the case of chain 1 I197A, chain 1 I204A, the ratio to parent is around 0.64.

Regarding chain 1 L105A, chain 1 L108A, the ratio to parent is around 0.62.

On to chain 1 V80A, chain 1 L81A, for which the ratio to parent was around 0.39.

On to chain 1 L47A, for which the ratio to parent was around 0.75.

As for chain 1 I43A, the ratio to parent was around 1.

For chain 1 I43A, chain 1 I46A, chain 1 I50A, the ratio to parent is around 0.8.

With chain 1 L81A, the ratio to parent is around 0.52.

For the variant chain 1 L105A, the ratio to parent was around 0.71.

As to chain 1 I46A, the ratio to parent is around 0.9.

For the variant chain 1 L77A, chain 1 V80A, chain 1 L81A, the ratio to parent is around 0.34.

For the variant chain 1 V80A, the ratio to parent was around 0.45.

chain 1 I43A, chain 1 I46A: the ratio to parent is around 0.79.

Regarding chain 1 L105A, chain 1 L108A, chain 1 L113A, the ratio to parent was around 0.66.

Turning to chain 1 L77A, chain 1 V80A, the ratio to parent was around 0.42.

In the case of chain 1 I53A, the ratio to parent is around 0.93.

Take chain 1 L108A: the ratio to parent is around 0.73.

As to chain 1 I43A, chain 1 I50A, the ratio to parent was around 0.84.

As for chain 1 L77A, chain 1 I84A, the ratio to parent was around 0.46.

chain 1 L113A: the ratio to parent is around 0.66.

Consider chain 1 I50A, for which the ratio to parent is around 0.62.

In the case of chain 1 I84A, the ratio to parent was around 0.56.

Turning to chain 1 I50A, chain 1 I53A, the ratio to parent is around 0.83.

As for chain 1 L77A, the ratio to parent was around 0.63.

The variants in the next assay derive from B2. The assay can be described thus: TR-FIA; parent: 1; read off a plot.
Consider chain 1 L129A, for which the ratio to parent was around 0.43.

Regarding chain 1 L63A, the ratio to parent was around 0.6.

Turning to chain 1 L130A, the ratio to parent was around 0.79.

Regarding chain 1 L117A, the ratio to parent is around 0.48.

Consider chain 1 L125A, for which the ratio to parent is around 0.63.

Consider chain 1 V124A, for which the ratio to parent is around 0.91.

Regarding chain 1 L63A, chain 1 L66A, chain 1 L67A, chain 1 L70A, the ratio to parent is around 0.58.

In the case of chain 1 L67A, the ratio to parent is around 0.65.

Take chain 1 L245A: the ratio to parent was around 1.

As to chain 1 L69A, the ratio to parent is around 1.1.

For the variant chain 1 L66A, the ratio to parent was around 0.59.

With chain 1 L70A, the ratio to parent was around 0.53.

For chain 1 L252A, the ratio to parent is around 0.95.

Regarding chain 1 I251A, the ratio to parent was around 0.88.

Turning to chain 1 I122A, the ratio to parent was around 0.79.

For the variant chain 1 L249A, the ratio to parent was around 0.96.

In another assay the parent is B2. In words: ELISA; PBX1 0.5 µM (highest point of the titration); GST control signal subtracted; parent: 0.8; read off a plot. A general note: An ELISA detects its analyte on a solid surface through an enzyme-linked reagent.
On to chain 1 L63A, chain 1 L66A, chain 1 L67A, chain 1 L70A, for which the response was ~0.13 Abs, 495 nm.

The values above are taken from article PMC7545097, “Mapping the native interaction surfaces of PREP1 with PBX1 by cross-linking mass-spectrometry and mutagenesis” (Scientific Reports, 2020).
